The values below come from the nanobody polyreactivity screen of Harvey et al. (2022).

The nature of this data set: yeast display, Sf9 membrane polyspecificity reagent, FACS + sequencing; frameworks hold sequencing errors. In short, it runs like this:
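Galactose induction of a Saccharomyces cerevisiae BJ5465 synthetic nanobody display library ran 36–48 hours. The cells were then stained for 1 hour at 4 °C with 10% biotinylated, detergent-solubilized Sf9 membrane reagent, pulled down on streptavidin microbeads and FACS-sorted into low and high (top ~1%) gates on expression and reagent-binding fluorescence. Labels for polyreactivity follow the gate of origin.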
Consider “QFQLVESGVGLVQAGGSLRLSCAASVRINYAYAMGWYRQTPGKERELVAAISTRGGNTYYADSVKGRFTISRDNAMNTVYLQINSLIPEETEVYYCNALSVSRRFGYDSWGQGTQVTVSS”, for which the “polyreactivity (PSR sort gate)” value was “high polyreactivity”.
The same measure for “QVQLVETGGGLVQAGGSLRLSCAASGSIFTNYVMGWYRQAPGKERELVAAINWSGGSTYYADSVKGRFTISRDNAKNTVYLQMNSLKQEDTAVYFCASESFSDGSPYNYWGQGPQVTVSS”: “low polyreactivity”; for “QVQLVESGGGLLQAGGSLRLSSAASGVYAMGWYRQAPGKERELVAAISRRGGSTYYADSVKGRFTISRDNAKNTVYLQMKSLNPADTAVYYCAADYTSRTRGNRDRLDYWGQGTQVTVSS”: “high polyreactivity”.
“QVQLVESGGGLVQAGGTLRLSCAASGSTFRWYAMGWYRQAPGKERELVAAITSSGSTYYADSVKGRFTISRDNAKNTVYLQMNSLKPEDTAVYYCAARAKGYWNTYEHDSWGQGIQVTVSS”: the “polyreactivity (PSR sort gate)” value is recorded as “low polyreactivity”.
The value for “QVQLVESGGGLVEAGGSLRISCAASGSIFGYYAMGWYRQAPGKERELVAAISYSGGSTNYADSVKGRFTISRDTAKNSVSLQMNSLKPEDTAGYAFATSRSRRYVEFYRYDYWGQGPQVTVSS” was “high polyreactivity”.
As for “QVQLVESGGGLVQAGGSLRLSCAASGSISADYVMGWYRQAPGKDRELVAAISVSAGTTYYADSVKGRFTISRDNAKNTVYLQMNSLKPEDTAVYYCAATDSYYWLYYYGYSPGNDYWGQGTQVTVSS”, the “polyreactivity (PSR sort gate)” value was “low polyreactivity”.
The same measure for “QVQLVESGGGLVQEGGSLRLSCAASGSTFKYYAMGWYRQAPGKERELVAAISKGATRTYYADSVKGRFTISRDNAKNTVYLQMNSLKPEDTAVYYCAARGRWNVPARRDYWGQGTQVTVSS”: “high polyreactivity”; for “QVQLVDSAGGLVQAGGSLRLSCAASGSIINSNAMGWYRQAPGKERELVAAINWRGGSTYYADSVKGRFTISRDNAKNTVYLQMNSLKPEDTAVYYCNALRRAPRAEYYYGGQGTQVTVSS”: “high polyreactivity”.
The value for “QVQLVESGGGLVQAGGSLRLSFAASGSILSYYAMGWYTQAPGKERELGAAISKSGGRTYYADSVKGRFTISRDNEKNTVYLQMNSLKPEDTAVYYCAADRYYLSRRPVQNGNEYWGQGTQVTVSS” was “high polyreactivity”; that for “QVQLVESGGGLVQAGGSLRLSCAASGSTFGVNAMVWYRQAPGKERELVAGISVDDSTTYYADSVKGRFTISRDNAKNTVYLQMNSLKPEDTAVYYCAAEREKTLYYLSRFDYWGQGTQVTVSS” was “low polyreactivity”; that for “QVQLVESGGGLVQAGGSLRLSCAASGYTFGHYAMGWYRQAPGKERELVAVITSGGSTNYADSVKGRFTISRDNAKNTVYLQMNSLKPEDTAVYYCAADLYFYYVWIRDYWGQGTQVTVSS” was “low polyreactivity”.
The same measure for “QVQLVESGVGLVQAGGSLRLSCAASGSILFYYAMGWYRQAPGKERELVAAITYSGARSYYADSVKGRFTISRDNAKNTVYLQMNSLKPEDTAVYYWAADQVYGIGYEYWGQGTQVTVSS”: “low polyreactivity”.
Turning to “HVQQQESGGGLVQAGGSLRLSCAASGYISVFIGMGWYRQSPGKERELVASIAYGAITYYTDSVKGRFTMSRDYAKNTEYLQMNSLKPEDTAVYYCATRRYYRYYNFWYYYWGQGTQVTVSS”, the “polyreactivity (PSR sort gate)” value is on record as “high polyreactivity”.
As to “QVQVVESGGGLVQAGGSLRLSCAASGSIFRDNAMGCYRQAPGKERELVASIRSSGGRTYYADSVKGRFTISRDNAKNTVYLQMNSLKPEDTAVYYCARRWYPVTPYARMYYWGQGTQVTVSS”, the “polyreactivity (PSR sort gate)” value is “low polyreactivity”.
Regarding “QVQLVESGGDLVQAGGSLRLSCAASGITFYVNTMGSYRPAPGKERELVAAIDWTDGGTYYADSVKGRFTISRDNAKNTVYLQMNSLKPEDTAVYYCAREYYWDIKGLYGYLAYDLDYWGQGSQVTVSS”, the “polyreactivity (PSR sort gate)” value is recorded as “low polyreactivity”.
For “QVHLVESGGGLVQAGGSLRLSCAASGRIFNWYVMGWYRQAPGKERELVAAITSGGITKYADSVKGRFTISRDNAKNTVYLQMNSLKPEDTAVYYCAAYYRRYDYDYWGQGSQVTVSS”, the “polyreactivity (PSR sort gate)” value was “high polyreactivity”.
The same measure for “QVQLVESCGGLVHAGGSLRLSCAATGFTIAENVKGWYRQSPGKERELVAAIDYSDGITYYADSVKGRFTISRDNAKNTVYLQMNSLKPEDTAVYYCATQYLIQTKDYSWGQGTQVTVSS”: “high polyreactivity”.
“QDQLVESGGGLVQAGGSLRLSCAASGSTFGYYAMGWYRQAPGKERELVAAITWNGGSTYADSVKGRFTISRDNAKNTVYLQMNSLKPEDTAVYYCAALVHRRVQYDYWGQGTQVTVSS”: the “polyreactivity (PSR sort gate)” value is listed as “high polyreactivity”.
The value for “QVQLVESGGGLVQAGGSLRLSCAASGFTFYPYAMGWYRQAPGKERELVAGITRGGSTNYADSVKGRFTISRDNAKNTVYLQMNSLKPEDTAVYYCAAKYGPYFRRLDYWGQGTQVTVSS” was “high polyreactivity”.
The same measure for “QVQLVESGGGFFQAGGSLRLSCAASGSTFVYNAMGWYRQAPGKERELVAAISRNGGRTYYADSVKGRFTISRDNAKNTVYFQMNSLKPEDTAVYYCAADYRVQLRKEYDYWGQGTQVTVSS”: “high polyreactivity”; for “QVQLVESGGGLVQAGGSLRLSCAASGFTFRGNAMGWYRQAPGKERELVAAITSSGGRTYYADSVKGRFTISRDNAKNTVYLQMNSLKPVDTAVYYCAARYAYPSRYYYWGQGTQGTVSS”: “high polyreactivity”; for “QVQLVESGGGLVQAGGSLRLSCAASGRTFPLYAMGWYRQAPGKERELVASITSDSSTYYADSVKGRFTISRDNAKNTVYLQMNSLKPEDTAVYYCAATTIPYPYTEFDYWGQGTQVTVSS”: “low polyreactivity”.
The value for “QVQLVESGGGLVQAGGSLRLSCAASGSIFTSNVMGWYRPAPGKERELVAAITITGTTNYADSVKGRFTISRDNAKNTVYLQMNSLIPVDTAVYYCAKDPVDLSPADWRADYDYWGQGTQVTVSS” was “low polyreactivity”.
Consider “QVHLVETGGGLVQEGGSLRLSCAATGSNFGQNAMGWYRQAPGKERELVAAITRRGVATYYADSVKGRFTISRDNAKNTVYLQLISLKPEDTAVYYCAKRYHPNSPYDYWGQGTQVTVSS”, for which the “polyreactivity (PSR sort gate)” value is listed as “low polyreactivity”.
For the sequence “QVQLVESGGGLVQAGGSLRLSCAASGSTFPDYAMGWYRQAPGKERELVAAISRRGVRTYYADSVKGRFTISRDNAKNTVYLQMNSLKPEDTAVYYCAAPSLLSGSDMDYWGQGTQVTVSS”, the “polyreactivity (PSR sort gate)” value was “high polyreactivity”.
The value for “QVQLVESGGGLVQAGGSLRLRCAASGSTFSTNAMGWYSQAPGKERELVASITRSGGSTYYADSVKGRFTISRDNAKNTFYLQMTSLKPEDTAVYYCNADGYYDYDYGFWGQGTQVTVSS” was “low polyreactivity”.
For “QVQLVESGGGLVQAGGSLRLSCAASGSISSNAMGWYRQAPGKERELVAAISGSVGSTYYADSVKGRFTISRDNAKNTVYLQMNSLKREDTAVYYCAADAEAGRYVYGASSELGYDYWGQGTQVTVSS”, the “polyreactivity (PSR sort gate)” value is “low polyreactivity”.
The same measure for “QVQLVESGGGLVQAGGSLRLSCAASGSILFGYGMGWYRQAPGKERELVATITTSGGTYYADSVKGRFTISRDNAKNTVYLQMNSLKPEDTAVYYCAATAAALDGNTIMYYWGQGTQVTVSS”: “low polyreactivity”; for “QVQPQESGGGLVQAGGSLRLSCAASGTIFAFQTMGWYRQAPGKERELVASITYGSSTNYADSVKGRFTISRDNAKNTVYLQMNSLKPEDTAVYYCAKSAQRYSYRYYYWGQGTQVTVSS”: “high polyreactivity”.
The same measure for “QVQLVESGGGLVQAGGSLRLSCADSGYIYPYYAMRWYRQAPGKERELVATITSRGGSTYYADSVKRRFTISRDIAKNTVYLQMNSLKPEDTAVYYCAIEYRYYRRRYDYCGQGTQVTVSS”: “high polyreactivity”; for “QVQLVESGGGLVQAGGSLRLSCAPSGITFRHYALGGYRQAPGKERELVAAITSRGGSTYYADSVKGRFTISRDNAKNTVYLQMNSLKPEDTAVYYCNKRLYYQRWPAAAREYWGQGTQVTVSS”: “high polyreactivity”.
As to “QVQLVESGGGLVQAGGSLRLSCAASGFIFADNAMGWYRQAPGKERELVAAINLGGGDTYYADSVKGRFTISRDNAKNTVYLQMNSLKPEDTAVYYCATVWFSEGYDYNHWGQGTQVTVSS”, the “polyreactivity (PSR sort gate)” value is given as “low polyreactivity”.
The value for “QVQLVESGGGIVQAGGSLRLSCAASGLNFGLYAMGWDRQAPGNERELVAAITWSGVSTSYADSVKGRFTISRDNAKNTVYLQMNSLKPEDTAVYYCNKDPGTLYGDMDSWGQGTQVTVSS” was “low polyreactivity”; that for “QVQLLESGGGLVQAGGSLRLSCAPSGRIFGYYAMGWYRQEPGKERELVAAISRGGSTNYADSVKGRFTISRDNAKNTVYLQMNSLKPEDTAVYYCAALVYRSYNNYYWGQGTQVTVSS” was “high polyreactivity”; that for “QVQLVESGGGLVQAGGSLRLSCAAYGSILYVYAMGWYRQAPGKERELVAVITAGGSTNYADSVKGRFTISRDNAKNTVYLQMNSLKPEHSAVYYCAADPYSVYGGDYWGQGTQVTVSS” was “low polyreactivity”.
The same measure for “QVQLVESGGGLVQAGGSLRLSCAASGFTFWTYPMGWYIQAPGKERELVAAIDSGGSTYYADSVKGRFTISRDNAKNTVYLQMNSLKPEDTAVYYCNAGPSVTSGYDYDYRGQGTQVTVSS”: “low polyreactivity”.
The value for “QVQLVESGGGLVQAGGSLRLSCAASGFTFIGNAMGWYRQAPGKERELVAAISSSGGRTYYADSVKGRFTISRDNAKNTVDLQMNSLKPEDTAVYYCATRQYRGVYYWGQGTQVTVSS” was “high polyreactivity”; that for “QVQLVESGGVLVQAGGSLRLSCAAYGSNFVRNGMGWYRQAPGKEREFVASITSGTITYYADSVKGRFTISRDNAKNTVYLQMNSLKPEDTAVYYCNAGCRSSRFKRPYFRERNYWGQGTQLTVSS” was “high polyreactivity”.
With “QVQLVESGGGLVQAGGSLRLSCAASGSIFEGYAMGWYRQAPGKERELVAAISRSGGSTYYADSVKGRFTISRDNAKNTVYLQMNSLKPEDTAVYYCAARKAIDYQGRHDHWGQGTQVTVSS”, the “polyreactivity (PSR sort gate)” value is on record as “low polyreactivity”.
On to “QVQLVESGGGLVQAGGSLRLSCAASGFIFTRNVMGWNRQAPGKERELVAAISSGGRTYYADSVKGRFTISRDNAKKTVYFQMISLKPEDTAVYYCNAGNRGVYRYDYWGQGTQVTVSS”, for which the “polyreactivity (PSR sort gate)” value is given as “high polyreactivity”.
The value for “QVQLVESGGSLVQAGGSLRLICAASGITFWPYAMGWYRPAPGKERELVAAINSGGDTYYADSVKGRFTISRDNAKNSVYLQMNILKPEDTAVYYCAKGRDWADEEGYEYWGQGTQVTVSS” was “low polyreactivity”.
